Among the data in article PMC12749359, “Chromosome compartment assembly is essential for subtelomeric gene silencing in trypanosomes” (Nature Communications, 2025) are Kd and koff values, retold here.

The target of assay [1] is T1, repressor-activator protein 1, His-tagged recombinant (T. brucei, UniProt Q387L4 1-855).
T1 chain: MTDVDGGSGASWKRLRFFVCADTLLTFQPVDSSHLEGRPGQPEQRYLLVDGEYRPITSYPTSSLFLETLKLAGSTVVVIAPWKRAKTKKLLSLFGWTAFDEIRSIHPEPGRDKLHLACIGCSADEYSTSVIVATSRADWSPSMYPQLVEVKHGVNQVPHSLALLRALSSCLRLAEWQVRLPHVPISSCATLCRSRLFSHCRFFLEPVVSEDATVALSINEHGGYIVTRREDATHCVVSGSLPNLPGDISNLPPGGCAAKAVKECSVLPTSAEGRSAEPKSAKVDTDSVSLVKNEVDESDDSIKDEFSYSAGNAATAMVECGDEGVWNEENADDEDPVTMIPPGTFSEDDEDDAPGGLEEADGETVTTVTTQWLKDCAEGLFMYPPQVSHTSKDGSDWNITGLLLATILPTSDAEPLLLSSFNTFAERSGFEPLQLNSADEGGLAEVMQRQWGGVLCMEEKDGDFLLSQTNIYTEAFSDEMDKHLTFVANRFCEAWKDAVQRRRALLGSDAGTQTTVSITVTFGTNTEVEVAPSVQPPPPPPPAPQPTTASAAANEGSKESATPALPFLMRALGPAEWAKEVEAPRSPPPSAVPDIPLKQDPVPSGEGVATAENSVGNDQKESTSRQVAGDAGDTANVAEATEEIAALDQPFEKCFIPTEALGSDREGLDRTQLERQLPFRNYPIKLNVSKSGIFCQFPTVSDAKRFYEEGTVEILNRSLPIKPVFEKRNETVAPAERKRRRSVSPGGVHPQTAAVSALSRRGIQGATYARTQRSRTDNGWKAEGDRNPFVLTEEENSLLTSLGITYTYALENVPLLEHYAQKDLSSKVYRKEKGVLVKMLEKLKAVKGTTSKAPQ
Kind of assay: SPR. (In general: In SPR one partner is held on a chip, and binding of the other changes the refractive index at the surface.)

The target of assay [2] is T1, repressor-activator protein 1, …. The experiment in a line: SPR.
The target in assay [3] is T2, repressor-activator protein 1, His-tagged recombinant (T. brucei, UniProt Q387L4 1-855).
T2 construct: RAP1 of Trypanosoma brucei, recombinant; also called RAP1-His; his-tagged RAP1; source: recombinantly produced in E. coli
T2 sequence (looked up): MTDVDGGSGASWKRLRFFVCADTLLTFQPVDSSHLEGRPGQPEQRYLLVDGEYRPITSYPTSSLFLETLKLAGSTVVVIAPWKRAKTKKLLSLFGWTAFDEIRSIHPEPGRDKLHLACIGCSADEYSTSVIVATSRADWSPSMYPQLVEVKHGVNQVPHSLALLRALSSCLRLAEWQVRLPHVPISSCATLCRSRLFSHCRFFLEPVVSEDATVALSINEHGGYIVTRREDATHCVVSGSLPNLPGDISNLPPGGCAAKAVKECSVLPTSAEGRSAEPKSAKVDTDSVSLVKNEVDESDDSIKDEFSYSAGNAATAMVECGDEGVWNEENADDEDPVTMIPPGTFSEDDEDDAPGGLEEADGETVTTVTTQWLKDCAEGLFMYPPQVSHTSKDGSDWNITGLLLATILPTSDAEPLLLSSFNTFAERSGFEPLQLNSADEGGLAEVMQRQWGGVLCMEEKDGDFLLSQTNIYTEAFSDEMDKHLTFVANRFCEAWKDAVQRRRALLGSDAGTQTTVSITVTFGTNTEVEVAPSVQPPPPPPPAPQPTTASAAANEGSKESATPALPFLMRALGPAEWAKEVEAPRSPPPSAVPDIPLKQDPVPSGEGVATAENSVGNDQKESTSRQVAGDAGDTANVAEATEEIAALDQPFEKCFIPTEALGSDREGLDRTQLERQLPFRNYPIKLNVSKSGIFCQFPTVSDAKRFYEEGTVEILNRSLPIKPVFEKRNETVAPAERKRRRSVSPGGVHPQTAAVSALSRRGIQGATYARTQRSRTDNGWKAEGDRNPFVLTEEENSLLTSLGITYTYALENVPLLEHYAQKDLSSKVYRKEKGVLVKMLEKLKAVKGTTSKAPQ
The experiment in a line: SPR; RAP1-His immobilised on NTA sensor (Nicoya OpenSPR-XT), blocked with 0.5% BSA; PIP5Pase-V5 added at 0.0008, 0.004, 0.008, 0.016 nM; 20 mM HEPES, 150 mM NaCl, 10 mM KCl, 10 mM MgCl2, 10 mM CaCl2, 0.2% NP-40; three replicates. Conditions: both partners purified.

B1: phosphatidylinositol phosphate 5-phosphatase, V5-tagged (enzyme, T. brucei, UniProt Q385E2 1-564, looked up)
chain: MRSLLEGITSTLRSAQQHQTGWDPRNATSTGVPTTAQEAFSGGVPAVAQRDLSHVEGPVSSKGGAPMDCITGYSRFSTHSPPDFPFRMLMITQNVGAIGDTAAGAKEGGEEHRRECEKQAGNDELSSDAQKDVREFLSELRLLIFEYSRREYTAHIRVSNTGDDDPSHPSAADIGGQGPPPLIDVIVVHFQEIGGKSFHTEFNNYFANALQELLPEAGWTSGLLMRANDDEDQFTAVGSVVYLSHRMCPISSILSFHHRTFVCVGDDPVTYGSSPTILFHGGKFSGAGESRKGYLLISLRLGTVVVNFLNVHLYNDKKSKEAAAASPSPYALQRQEALLETLAECAAFISPDDPLFIFGDFNTRLDVHNMLQYLKEVENLDVKVSDGDVRAPDSFWELFENPQHMGVIRPYDVEVQRLLDVVAQQSGMELAEFAVRFPPTYLCQSPRDSEEATFQIDTPVHLVNDGEDKRESGTSDRISVVRVLERLSSIPHHPYGRRRVPAWCDRVLWNPPALELMTGRRTSQSVAGSSATAHGGTGVGALRRYVYRSVALRHTDHAAVTLFF
notes: PIP5Pase of Trypanosoma brucei, endogenous allele tagged at the C-terminus (pMOTag3V5) in Lister 427 single-marker cells; also called PIP5Pase; PIP5Pase-V5; source: T. brucei bloodstream forms, endogenously tagged allele, in lysate of DSS cross-linked cells (XLMS, IP); isolated from T. brucei (SPR); not shown: 3xV5 (42 amino acids), C-terminal, kept
Usually Kd stands for the constant that tells how readily two partners part at equilibrium. By koff is commonly meant the rate constant with which the complex falls apart. B1: the figures for the Kd in assay [1] and in assay [3] were 0.27 µM and 0.0027 µM, respectively. Besides, the koff in assay [2] was 0.41 s⁻¹.
